The values that follow come from PMC3699067.

In this test the target is T1, DJ-1 (human (endogenous in HEK293T)), Q99497.
T1 chain: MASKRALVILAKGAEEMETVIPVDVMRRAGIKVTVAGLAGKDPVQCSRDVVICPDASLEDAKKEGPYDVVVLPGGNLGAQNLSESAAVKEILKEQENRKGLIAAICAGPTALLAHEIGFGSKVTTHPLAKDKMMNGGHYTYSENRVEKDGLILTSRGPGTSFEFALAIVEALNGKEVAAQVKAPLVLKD
Put plainly: cross-linking. As to conditions: remark: other sources report otherwise.

B1: DJ-1, Q99497 1-189 (natural protein)
chain: T1 chain
Turning to B1, the stoichiometry N (in general, a count of units in the complex or per binding partner) was determined as 2.
